This note sets out measurements from US20140357845A1 (published 2014).

In assay [1] the target is H3-mini2-cl9 + 10 + 11-tri (influenza A virus H3N2). Kind of assay: FACS.
Assay [2] addresses H3-mini2-cl9 + 10 + 11 + 13-GCN4 (influenza A virus H3N2). Kind of assay: FACS. On the technique in general: A flow cytometer gives signals particle by particle.
Assay [3] concerns the target H3-mini2-cl9 + 10 + 11-GCN4 (influenza A virus H3N2). Kind of assay: FACS.
Assay [4] has as its target H3-mini2-cl9 + 10 + 11 + 13 (influenza A virus H3N2, UniProt Q38SQ8 18-566). Kind of assay: FACS.
The target of another assay is H3-mini2-cl9 + 13 (influenza A virus H3N2, UniProt Q38SQ8 18-566). Kind of assay: FACS.
In assay [5] the target is H3-mini2-cl9 + 10 + 11 + 13-tri (influenza A virus H3N2). Kind of assay: FACS.
Assay [6] addresses HA of influenza virus A/Brisbane/10/2007 (H3) (influenza A virus H3). Description: cell-based or functional assay.
Assay [7] addresses HA of influenza virus A/Hong Kong/1073/99 (H9) (influenza A virus H9). Kind of assay: cell-based or functional assay.
For assay [8], the target named is HA of influenza virus A/Ck/HK/SSP176/09 (H9) (influenza A virus H9). Kind of assay: cell-based or functional assay.
Assay [9] has as its target HA of influenza virus A/Hiroshima/52/2005 (H3) (influenza A virus H3). Description: cell-based or functional assay.
Assay [10] has as its target HA of influenza virus A/EW/MPH571/08 (H8) (influenza A virus H8). Description: cell-based or functional assay.
Assay [11] concerns the target HA of influenza virus A/Env/MPU3156/05 (H2) (influenza A virus H2). Kind of assay: cell-based or functional assay.
Assay [12] concerns the target HA of influenza virus A/EW/MPF461/07 (H5) (influenza A virus H5). Description: cell-based or functional assay.
In assay [13] the target is HA of influenza virus A/WF/MPA 892/06 (H4) (influenza A virus H4). Kind of assay: cell-based or functional assay.
In assay [14] the target is HA of influenza virus A/EW/MPD411/07 (H6) (influenza A virus H6). Description: cell-based or functional assay.
Assay [15] concerns the target HA of influenza virus A/Johannesburg/33/94 (H3) (influenza A virus H3). Description: cell-based or functional assay.
Assay [16] addresses HA of influenza virus A/Chick/Germany/N/49 (H10) (influenza A virus H10). Kind of assay: cell-based or functional assay.
The target of assay [17] is HA of influenza virus A/Panama/2007/1999 (H3) (influenza A virus H3). Kind of assay: cell-based or functional assay.

B1: CR9114 (antibody, V domains shown)
VH: QVQLVQSGAEVKKPGSSVKVSCKSSGGTSNNYAISWVRQAPGQGLDWMGGISPIFGSTAYAQKFQGRVTISADIFSNTAYMELNSLTSEDTAVYFCARHGNYYYYSGMDVWGQGTTVTVSS
VL: SYVLTQPPAVSGTPGQRVTISCSGSDSNIGRRSVNWYQQFPGTAPKLLIYSNDQRPSVVPDRFSGSKSGTSASLAISGLQSEDEAEYYCAAWDDSLKGAVFGGGTQLTVL
B1: the binding result (in assay [1]; in assay [2]; in [3]; in assay [4]; with H3-mini2-cl9 + 13; in assay [5]) was “no binding (tested: 5 microgram/ml)” each time. For the same molecule, the “geomean IC50, virus neutralization assay (VNA)” value in assay [6] turned out to be 5.6 µg/mL; in assay [7] it was 4.4 µg/mL; in assay [8] it was 6.3 µg/mL; in assay [9], 12.5 µg/mL; in assay [10], 8.8 µg/mL; in [11] it was 8.8 µg/mL. Also, the “geomean IC50, virus neutralization assay (VNA)” value in [12] is 10.5 µg/mL; in assay [13] it was 0.8 µg/mL; in [14] it was 10.5 µg/mL; in [15] it was 21.9 µg/mL; in assay [16], 15.7 µg/mL; in [17], 39.9 µg/mL.
